In the supplement of paper PMC9170038:

Test system: MS2 coat protein
Test: apparent KD of MS2 coat protein; higher = weaker reporter binding
Conditions: Eterna round: R107
Experimental: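 RNA-MaP round R107: designed RNA switches with theophylline, tryptophan, arginine or FMN aptamers are transcribed on-chip within common flanks. They are titrated with SNAP-549-labelled MS2 coat protein in RNA-MaP buffer (100 mM Tris pH 7.5, 80 mM KCl, 4 mM MgCl2), without ligand or with the indicated ligand. Median apparent KD per design.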

[1] = input ligand: theophylline 20 uM
[2] = input ligand: tryptophan 2.4 mM
[3] = input ligand: theophylline 2 mM

## UCCACAUGAGGAUCACCCAUGUAAUCAGAUACCAGUGACGAAAGUCACCCUUGGCAGCUGAUUACUUUAGUUCGAGGGUGUUUGA [EThA NP+V+V2 #4 Same Structure]
Input ligand: arginine 13.2 mM
  apparent KD of MS2 coat protein: 84.5 nM
[1]
  apparent KD of MS2 coat protein: 148 nM
[2]
  apparent KD of MS2 coat protein: 79.5 nM

## UCGCUAUUGUCGGCCGCCACUACUGCAGGGAAACAAAUAUAACCACAUGAGGAUCACCCAUGUCUUAGGACCGGGACACCCAUCU [theeternabot_sameState_MS2_Trp_B_2]
Input ligand: arginine 13.2 mM
  apparent KD of MS2 coat protein: 54.8 nM
[1]
  apparent KD of MS2 coat protein: 126 nM
[3]
  apparent KD of MS2 coat protein: 119 nM

## CGAUCCUGCAGGGAUACCAGCGCCGCUUGAUAACUGUGCACAUGAGGAUCACCCAUGUAGCGCCCUUGGCAGCCCAGCUAGAGGG [Same State Theophylline B GF25]
Input ligand: arginine 13.2 mM
  apparent KD of MS2 coat protein: 12.9 nM
Input ligand: none
  apparent KD of MS2 coat protein: 15 nM
[1]
  apparent KD of MS2 coat protein: 29.2 nM
[3]
  apparent KD of MS2 coat protein: 13.9 nM
[2]
  apparent KD of MS2 coat protein: 14.7 nM

## AAGACAUGAGGAUCACCCAUGUGUCAUGAAGGAGCGUCGGAAAUGACAGGUAGGUCGCAUGACCGUUGGCGCCGGAAACGGCGCA [SSAA #15]
Input ligand: arginine 13.2 mM
  apparent KD of MS2 coat protein: 23.8 nM
Input ligand: none
  apparent KD of MS2 coat protein: 30.5 nM
[1]
  apparent KD of MS2 coat protein: 35.3 nM
[3]
  apparent KD of MS2 coat protein: 33.3 nM
[2]
  apparent KD of MS2 coat protein: 23.5 nM

## GGACUAACCAGAAGGAGCGACACGCAGAAACUGCAAUUUCCUCUACACGAGGAUCACCCGUGUCAGGUAGGUCGCUGGUUAGUCG
Input ligand: arginine 13.2 mM
  apparent KD of MS2 coat protein: 50 nM
Input ligand: none
  apparent KD of MS2 coat protein: 53.1 nM
[1]
  apparent KD of MS2 coat protein: 74.8 nM
[3]
  apparent KD of MS2 coat protein: 65 nM
[2]
  apparent KD of MS2 coat protein: 54 nM

## UAAUCGUAGGCGGCCGCCACUUUUUGGUAGUGUCCAUUGUACACUCACAUGAGGAUCACCCAUGUAAGGACCGGGCCCGCAUCAG [theeternabot_exclusion_MS2_Trp_B_32]
Input ligand: arginine 13.2 mM
  apparent KD of MS2 coat protein: 17.9 nM
[1]
  apparent KD of MS2 coat protein: 24.7 nM
[3]
  apparent KD of MS2 coat protein: 17.7 nM

## GGUUGGUGUAGAGAUAUAUUGAUUACUGAAGGAGCGGGAAUAAACCCAGGUAGGUCGCAGAGAUCCACAUGAGGAUCACCCAUGU [!0.O]
Input ligand: arginine 13.2 mM
  apparent KD of MS2 coat protein: 32 nM
Input ligand: none
  apparent KD of MS2 coat protein: 36.9 nM
[1]
  apparent KD of MS2 coat protein: 54.6 nM
[3]
  apparent KD of MS2 coat protein: 53 nM
[2]
  apparent KD of MS2 coat protein: 35.3 nM

## UUACCGUAAGGUAUACCGGUCUACAAUAAUCGAGGACCGGUACGGCCGCCACUCGAUGUGUAAUCACAUGAGGAUCACCCAUGUA [Tryptophan A 19]
Input ligand: arginine 13.2 mM
  apparent KD of MS2 coat protein: 21.1 nM
[1]
  apparent KD of MS2 coat protein: 27.7 nM
[3]
  apparent KD of MS2 coat protein: 27.4 nM

## AGGACGGUCGGAAGGAGCGGUACAUGAGGAUCACCCAUGUACUUCUGGGCAUCCGUAGAGUGCCAGGUAGGUCGCCGAUUGCGGG [XArg-B10]
Input ligand: arginine 13.2 mM
  apparent KD of MS2 coat protein: 16.4 nM
Input ligand: none
  apparent KD of MS2 coat protein: 9.36 nM
[1]
  apparent KD of MS2 coat protein: 17.5 nM
[3]
  apparent KD of MS2 coat protein: 10.6 nM
[2]
  apparent KD of MS2 coat protein: 12.9 nM

## UGAUCCUGCAGGGAUACCAGCGCCGCUAGAUAACUAUGCACAUGAGGAUCACCCAUGUAACGCCCUUGGCAGCCCAGCUAAAGGG [Same State Theophylline B GF22]
Input ligand: arginine 13.2 mM
  apparent KD of MS2 coat protein: 23.1 nM
Input ligand: none
  apparent KD of MS2 coat protein: 58.7 nM
[1]
  apparent KD of MS2 coat protein: 60.1 nM
[3]
  apparent KD of MS2 coat protein: 31.3 nM
[2]
  apparent KD of MS2 coat protein: 48.1 nM

## UAUGAGCGCACGGCCGCCACUGUCUUCAUCUGUUUGUCUACAUGAGGAUCACCCAUGUUGGUUUACAGGACCGGGUGCAACUAUG [SSTryp B #10]
Input ligand: arginine 13.2 mM
  apparent KD of MS2 coat protein: 26.9 nM
[1]
  apparent KD of MS2 coat protein: 38.1 nM
[3]
  apparent KD of MS2 coat protein: 33.8 nM

## UUGGCAGCAUGGGUGGCUGCCAAGGCUGAUACCAGCCACGAAAGUGGCCCUUGGCAGCAGCAAACAUGAGGAUCACCCAUGUUAA [(T)''-(M)'-(T)'-(Theo)-(Ms2)_Design3]
Input ligand: arginine 13.2 mM
  apparent KD of MS2 coat protein: 87.2 nM
Input ligand: none
  apparent KD of MS2 coat protein: 86.3 nM
[1]
  apparent KD of MS2 coat protein: 105 nM
[3]
  apparent KD of MS2 coat protein: 104 nM
[2]
  apparent KD of MS2 coat protein: 93.3 nM

## UAGCGAUUUGGUGAUACCAGACGUGUGCAGUCCUCAGACAUGAGGAUCACCCAUGUAUGCGUCCCUUGGCAGCGCUAUGAGGACA [Theo B Ex t6]
Input ligand: arginine 13.2 mM
  apparent KD of MS2 coat protein: 66.5 nM
Input ligand: none
  apparent KD of MS2 coat protein: 48.4 nM
[1]
  apparent KD of MS2 coat protein: 105 nM
[3]
  apparent KD of MS2 coat protein: 201 nM
[2]
  apparent KD of MS2 coat protein: 44.3 nM

## UAAUAAAUAAAUCCAAGGUGAAGGUCAGAUACCAGCCAGAUAACUGGCCCUUGGCAGCUGAAUAAACUUGAGGAACACCCAAGUA [TheoAS 28 #OpenEnded #MS2Late #AlternativeMS2]
Input ligand: arginine 13.2 mM
  apparent KD of MS2 coat protein: 16.7 nM
Input ligand: none
  apparent KD of MS2 coat protein: 23 nM
[1]
  apparent KD of MS2 coat protein: 31.3 nM
[3]
  apparent KD of MS2 coat protein: 82 nM
[2]
  apparent KD of MS2 coat protein: 22.7 nM

## GUUACCAUGUCGGCCGCCACUAACAAGGUUAUGGCAAGUCUACACGACAUGAGGAUCACCCAUGUUAGGACCGGGACCCAUACCC [theeternabot_exclusion_MS2_Trp_B_44]
Input ligand: arginine 13.2 mM
  apparent KD of MS2 coat protein: 12.2 nM
[1]
  apparent KD of MS2 coat protein: 17.5 nM
[3]
  apparent KD of MS2 coat protein: 16.2 nM
